Paper PMC3357048 (Nature structural & molecular biology, 2011)

Legend:
[1] = target: sFcεRIα W87D (immobilised for SPR) (human) (UniProt P12319); experiment: SPR
[2] = target: the molecule itself; experiment: crystal structure

| dH [1] | Molecule | stoichiometry N [2] |
| --- | --- | --- |
| -15.2 kcal/mol | Fcε3-4 (sub-fragment of IgE-Fc lacking the Cε2 domains) (from UniProt P01854 211-427) (domain or fragment) |  |
|  | human IgE-Fc (dimer of Cε2-Cε3-Cε4 domains) (domain or fragment, N-linked high-mannose carbohydrate at Asn394) CSRDFTPPTVKILQSSCDGGGHFPPTIQLLCLVSGYTPGTINITWLEDGQVMDVDLSTASTTQEGELASTQSELTLSQKHWLSDRTYTCQVTYQGHTFEDSTKKCADSNPRGVSAYLSRPSPFDLFIRKSPTITCLVVDLAPSKGTVNLTWSRASGKPVNHSTRKEEKQRNGTLTVTSTLPVGTRDWIEGETYQCRVTHPHLPRALMRSTTKTSGPRAAPEVYAFATPEWPGSRDKRTLACLIQNFMPEDISVQWLHNEVQLPDARHSTTQPRKTKGSGFFVFSRLEVTRAEWEQKDEFICRAVHEAASPSQTVQRAVSVNPGL | 2 |
